These are literature values, as cited in US7037697B2, “Isozyme of autoclavable superoxide dismutase (SOD), a process for the identification and extraction of the SOD and use of the said SOD in cosmetic, food, and pharmaceutical compositions” (Council of Scientific & Industrial Research, priority 2000, dated 2006).

For the data set the following is noted: Cu/Zn-SOD, Bonaccorsi di Patti et al. 1994.

For ox: Cu/Zn-SOD from ox, the conformational melting temperatures was 88.05 °C.

B1: yeast: Cu/Zn-SOD from yeast (protein, UniProt P00445 2-154, looked up)
Superoxide dismutase [Cu-Zn]: VQAVAVLKGDAGVSGVVKFEQASESEPTTVSYEIAGNSPNAERGFHIHEFGDATNGCVSAGPHFNPFKKTHGAPTDEVRHVGDMGNVKTDENGVAKGSFKDSLIKLIGPTSVVGRSVVIHAGQDDLGKGDTEESLKTGNAGPRPACGVIGLTN
As to B1, the conformational melting temperatures was 73.1 °C.
